According to the DeepSol protein solubility set:

Test: soluble on expression in E. coli; label from the status in PepcDB or PDB records

Sequence: MEFDPVKINTSSIDHVTILQYIDEPNDIRLTVCIIRNINNITYYINITKINPHLANRFRAWKKRIAGRDYMTNLSRDTGIQQSKLTETIRNCQKNKNIYGLYIHYNLVINVVIDWITDVIVQSILRGLVNWYIANNTYTPNTPNNTTTISELDIIKILDKYEDMYRVSKEKECGICYEVVYSKRLENDRYFGLLDSCNHIFCITCINIWHRTRRETGALDNCPICRTRFRKITMSKFYKLVN
- soluble on expression in E. coli: not soluble

Sequence: MSSRPPFGIVKPSKPTGNPSSGSSDLDSTAEPSPHERRMDSQRASSGSDVHGHPSLGSQSHNLTSAQSEGRNAHKDLHERHVHPSQGYQRHGSKAPAHGHPSSQGARRSQHELSNFPKLLANLMQDTKATASASCASNQDTLQPTASTMSDGEPEEDKVKLCGNRLEVGVTDNLAGTQRRKEQQQLQGAQAKNDIIYTLSTDNSILDIDHQPKREIAFTHSLLNISKIVNRMIPIRCSMFPGKSWKDPNNLKRPSIAKVHRTNHANELRTARFKANEKCYLLSVCQLISLKNPTFQGLSDSLNSPGDKKVAAEKHTCEDRTRRPTFPLDAFCSTPNEQYETMLLIAKSRTLSARMNVKMLHFPLGLLALEFDGIDSDMPNPDFHDNVLGYRDPHTTTPDSSSDHAAANLPPGRTRDYIPRKAKAPYINYVHSLSVMVEPLPSPPECCHLGSAEPVRPNFADIGAWSGSPTNPQSPSA
- soluble on expression in E. coli: not soluble

Sequence: DAARRGGAAGGGGPRSPRRSGPLGPHACPPALPEPKVTSTMSSQVVGIEPLYIKAEPASPDSPKGSSETETEPPVTLASGPAPARCLPGHKEEEDGEGAGSGEQGSGKLVLSSLPKRLCLVCGDVASGYHYGVASCEACKAFFKRTIQGSIEYSCPASNECEITKRRRKACQACRFTKCLRVGMLKEGVRLDRVRGGRQKYKRRPEVDPLPFPGPFPAGPLAVAGGPRKTAPVNALVSHLLVVEPEKLYAMPDPASPDGHLPAVATLCDLFDREIVVTISWAKSIPGFSSLSLSDQMSVLQSVWMEVLVLGVAQRSLPLQDELAFAEDLVLDEEGARAAGLGDLGAALLQLVRRLQALRLEREEYVLLKALALANSDSVHIEDAEAVEQLREALHEALLEYEAGRAGPGGGAERRRAGRLPCTLPLLRQTAGKVLAHFYGVKLEGKVPMHKLFLEMLEAMMD
- soluble on expression in E. coli: soluble

Sequence: GPGSMSSEHGEILRLWEKLRTIEDRTEEQVAMPSSKKTAYAHKYPMVDKLMHLIEPKFANLVRTPSVSRVVQSMIKYGSAEQVNRLLKWVSKDFSTYATDAYAHFVVCALVRHVPHEAYSKLMTHVIPSVPQLVAHKFGIEVLHSVYSSRWCSPADRSLLLLAVFKDNVAVMRRWPGYPEVEAVLKKNPSLQRRLLSRLFDLSDKLVSQKEAIGYPFVQRLVGTYVRCGTRDEVSELCDTLRPHITAISATREGAPLASLAFSLTEPKKRKEVLHSFNAQLGELCTSKYAAPVIARLFDLLYDAQMLRKYVASDLAEHIGQVVNSPYGYQILMHLLTPHEERKRRFLLPNWQEHNLFSMENKEWNHHTWLTPAFVPETVEICSKPAVTSHLAALPMLVKAFLQYVTDEAHSAKLNRHHAALIAREVLHVVQHEPLYKAAIQLSEDEEHALSKLAPAHGKREREDAAGEVETYAAAPTKCPKRENGSQKAAALTPADKRKKTKVPTVISAAAPLEGRRVKTDAKKRVKKS
- soluble on expression in E. coli: soluble

Sequence: MTILEELNDSSIPQRLDNHIFFGSVHSLTHTDFLVENNIRFFINVDLSTELISHIYHEVRSKFAHEIVIVNIDNDSQIPIESDLVRSFHWHNTSLLQQLIHHLDFLSGINNHGEPLTPPPESHYRNAYVQFDHPSDSVSILDKLLYGNKSEYSRTNIFQVTNEAKFQVFNDLITIFKYSIAQGGNTNSNILVLSENGSTDENLISLLMSTVLKENPTFNVYQALQFVKSIAVIPDTVRDEKILWVTGFINYQELIKKNEMYWGLGSQKGRKLTSFASPISKVERKQRRRDDQNIMRSKLPQQRQNPFCSTERPKRARCD
- soluble on expression in E. coli: not soluble

Sequence: MNPIAVTLLTGFLGAGKTTLLRHILNEQHGYKIAVIENEFGEVSVDDQLIGDRATQIKTLTNGCICCSRSNELEDALLDLLDNLDKGNIQFDRLVIECTGMADPGPIIQTFFSHEVLCQRYLLDGVIALVDAVHADEQMNQFTIAQSQVGYADRILLTKTDVAGEAEKLHERLARINARAPVYTVTHGDIDLGLLFNTNGFMLEENVVSTKPRFHFIADKQNDISSIVVELDYPVDISEVSRVMENLLLESADKLLRYKGMLWIDGEPNRLLFQGVQRLYSADWDRPWGDEKPHSTMVFIGIQLPEEEIRAAFAGLRK
- soluble on expression in E. coli: soluble

Sequence: MSLPRRPTSSAREGDGGKRSGHTFAAVEAIGRALPDVEVTTAWGQPALKVHGKMFVCVASHKSAEPNSLVVMMAFADRDALVEDDPATYYLRKHYLNHPCVLVRLTRIRLDALRDLVVGAHRLVNVQMRSKSDIGSQGTSRPLRDRREGHHHHHH
- soluble on expression in E. coli: soluble

Sequence: MNDPREILAVDPYNNITSDEEDEQAIARELEFMERKRQALVERLKRKQEFKKPQDPNFEAIEVPQSPTKNRVKVGSHNATQQGTKFEGSNINEVRLSQLQQQPKPPASTTTYFMEKFQNAKKNEDKQIAKFESMMNARVHTFSTDEKKYVPIITNELESFSNLWVKKRYIPEDDLKRALHEIKILRLGKLFAKIRPPKFQEPEYANWATVGLISHKSDIKFTSSEKPVKFFMFTITDFQHTLDVYIFGKKGVERYYNLRLGDVIAILNPEVLPWRPSGRGNFIKSFNLRISHDFKCILEIGSSRDLGWCPIVNKKTHKKCGSPINISLHKCCDYHREVQFRGTSAKRIELNGGYALGAPTKVDSQPSLYKAKGENGFNIIKGTRKRLSEEEERLKKSSHNFTNSNSAKAFFDEKFQNPDMLANLDNKRRKIIETKKSTALSRELGKIMRRRESSGLEDKSVGERQKMKRTTESALQTGLIQRLGFDPTHGKISQVLKSSVSGSEPKNNLLGKKKTVINDLLHYKKEKVILAPSKNEWFKKRSHREEVWQKHFGSKETKETSDGSASDLEII
- soluble on expression in E. coli: soluble

Sequence: MTIGIDKINFYVPKYYVDMAKLAEARQVDPNKFLIGIGQTEMAVSPVNQDIVSMGANAAKDIITDEDKKKIGMVIVATESAVDAAKAAAVQIHNLLGIQPFARCFEMKEACYAATPAIQLAKDYLATRPNEKVLVIATDTARYGLNSGGEPTQGAGAVAMVIAHNPSILALNEDAVAYTEDVYDFWRPTGHKYPLVDGALSKDAYIRSFQQSWNEYAKRQGKSLADFASLCFHVPFTKMGKKALESIIDNADETTQERLRSGYEDAVDYNRYVGNIYTGSLYLSLISLLENRDLQAGETIGLFSYGSGSVVEFYSATLVEGYKDHLDQAAHKALLNNRTEVSVDAYETFFKRFDDVEFDEEQDAVHEDRHIFYLSNIENNVREYHRPE
- soluble on expression in E. coli: soluble

Sequence: MSLKLEIIAIGGYEEVGRNMTAVNVDGEIIILDMGIRLDRVLIHEDTDISKLHSLELIEKGIIPNDTVMKNIEGEVKAIVLSHGHLDHIGAVPKLAHRYNAPIIGTPYTIELVKREILSEKKFDVRNPLIVLNAGESIDLTPNITLEFIRITHSIPDSVLPVLHTPYGSIVYGNDFKFDNFPVVGERPDYRAIKKVGKNGVLCFISETTRINHEGKTPPEIIASGLLKNDLLAADNDKHGIIVTTFSSHIARIKSITDIAEKMGRTPVLLGRSMMRFCGIAQDIGLVKFPEDLRIYGDPSSIEMALKNIVKEGKEKYLIIATGHQGEEGAVLSRMATNKTPYKFEKYDCVVFSADPIPNPMNAAQRYMLESRLKLLGVRIFKGAHVSGHAAKEDHRDMLRWLNPEHIIPSHGDFNLTAEYTKLAEEEGYRLGEDVHLLRNGQCLSFEREGHHHHHH
- soluble on expression in E. coli: soluble

Sequence: MSYPIKSTLIILRGNSASGKTTIAKQLQEHFGQGTLLVSQDVVRRDMLRVHDTIGNLSHDLLFEITKYGKGKCEFVILEGILNSHRYGDMLKELIHLFEGNAYTYYFDLSLKETIRRHNTREKRHEFGEDSLQKWYNPHDTIEVTRETIFTDNLTQKDIFDAILNDVMVRKLEHHHHHH
- soluble on expression in E. coli: soluble

Sequence: MGRVAEKVIIIGNNFGNDKSAVTVLFTDNMEKENKAAVVGVDNTTIYCMAPRQAEGFNKITVKVNDQTVVADETFKYSVSENVSTIAGDFVQADGAGKDGSLAEATFGQMFGVACIDEQSGIVGQAWNNNSVRYISIDEDAVITIQSGPVVGKVAVSNDKTLAYGATINGANTVYVYKKSQAWVPSRLSDISSGTDVWAVALNGDNQWLYYVTANGRLGRIEVDNPTHNEILFEHNDFSGGPFAYIAYSAFEDCFYVTTDKNKILKVWVKEDGTHAYEQINQNNTGTTDGFLADEAKFQYLRGLTIDEDGNIFVCQGDNSHVIRKIAYDENMEKRYVTTVLGTSTVHGTDDGSPDIALFNGPQDISYDGNGGYWIAMRYEPALRKYSIELEHHHHHH
- soluble on expression in E. coli: soluble

Sequence: MASTQCVNIQKRDIIRGASDVSWFDVLLEKGACVTISAQDKPSVDLWLDDVIQESLIEGRHYCTKASTSDLKADARCPTQGEATMREEYLDGYVCKRSFSDRGWGNGCGLFGKGSIVGCAKATCGANDIIKSYSYDSPKVKYVIGAEVHQGKLLTNNSTDRIVKTTFTAESEKHTITIADYGSMDFTCRVVASAELSNIRMIELDGHMFNVHEDWLSDLPLPSKISGGSWHGMDRLVVFKEPHAVKMEIQACGDQRPAVFKSLVKAEEVTKTSNSYHLTGGHVDCRVSTLNLRMKGLTYQMCSSSFVWHKRPVATQHGTVAMEVKYKGSDAPCRIPVSVEKEGYNGKNFGNLITANPFAANNEAVVFLELEAPLGVSTIKVGGAVFQWKQEGSSIGKALEHHHHHH
- soluble on expression in E. coli: not soluble

Sequence: MGSDKIHHHHHHMLKHFGSKVRNLRVTRNITREDFCGDETELSVRQLARIESGQSIPNLTKAHYIAKQLNVKLDILTGGESLELPKRYKELKYLILRIPTYADAERLKLRECQFDHIFEEFYDNLPEDECLAIDSLQAKFEVYQTGDINFGVEVLCECFDKVKYKEKYTLNDLIIIDLFLTCAVVSKFNNRAFTKEVFQTICKTLISQNHKLTAEDLFWFNHVLLNCVFVGLCLNSEECLAEMLEVSRQTMVSTHDFHKMPLYFMYQWKYFITIDNDIKSAENAYQQSIMFSKMIDDKHLIKKLELEWQEDITGH
- soluble on expression in E. coli: not soluble

Sequence: MHRSFPRLVRSQGNLLKGMFGKSGEKEAVKQLTLEEQESLRKTLPSIRARESTQVTASADSVTEFDDDLLTMSRIDTDAIRARGFLKYTQNYVPGVDVKNQVLEAASSCLRSAGVKSENVDQYKFVEGDNSVKFELLNRLGKSIEHWPTNGKLLHLETVADVVEFYQTPVKNVTKYTEMARDENKPKNVSIMEHAARFHPEDTHMYHGGITAFPGSGGEVLSLRQKRLLRQFQPKKEWFDYDDQTFDYTRPDKNMPWDPEVANQMDKYTDKRYNLKTKQFTRIRQ
- soluble on expression in E. coli: not soluble

Sequence: MGSDKIHHHHHHVPVRDGLQPLFVAAPLHAGGRPAAFGLKDRVMADNTTSTALLDLRGVRKTFLTPDRRERTVLEGVDFKLEEGEIVALLGKSGSGKSTLLRIMAGLIKANGGEVKYRGHLMTGPAKGISMVFQSFALFPWLTVEENVELGLEAAGIPKAEREDRANEAIDLIGLGGYESAYPKELSGGMRQRVGFARALVMRPDVLLLDEPFSALDVLTSETLREDLLELWDERKIPTKGILLVSHNIEEAVSMADRVLVFSSDPGRVRAEIRVNLPRPRDTESAAFRQIVDEVYTLMTANVRGGGVGATEQLTLGYRLPDTTPGKMAGLLETVAEAPFNGRADLPQLAEETELEDDQLFHLFEGLRVLGLARIAAGDIFVTHSGQAFVEADDAHRKELFAEALVKNIPLAAHIRRVLDERKDHRAPEDRFLQELQDYLTDDEAERVLETTITWGRYAEIFDYDYNAGVLMLPEEVVEELEAGEETRDDPGARE
- soluble on expression in E. coli: not soluble

Sequence: MIKIELKNKDNQIITGRIDHEKPEAPFVAEGDTLAVLAIKQYLYQVGDKIVVTYTGATPYLMVQLDETLAPSLIYLKEKVWEYQIPLEESARKAFVDTAFHSARHQIMVRQAHTFEKDNYQNLSMNTHDQKEYSGAYPHAYANVETRDDAVFFAKNAIDSKFGNLSHGSYPFASWGINQKKEAQLTIDFGRPVETDWIRLLFRADYPHDSYWEEVTLAFSDGEERVVATTNTTCFQEIKFPMKTTQTLTLKCLRKALDSSPFPALTQIEVFGRNK
- soluble on expression in E. coli: soluble
